Results on 19 molecules are retold here after US20240400654A1.

Values joined by “and” are separate entries in the source; they are usually repeats but may differ in a detail not shown here. Equal values may be shown once.

This assay concerns the target HRgpA-6H (Porphyromonas gingivalis) (UniProt P28784). Description: ELISA, coated HRgpA-6H. In general terms: ELISA stands for enzyme-linked immunosorbent assay.
Sequence of UniProt P28784 (P28784 228-860 limits assumed): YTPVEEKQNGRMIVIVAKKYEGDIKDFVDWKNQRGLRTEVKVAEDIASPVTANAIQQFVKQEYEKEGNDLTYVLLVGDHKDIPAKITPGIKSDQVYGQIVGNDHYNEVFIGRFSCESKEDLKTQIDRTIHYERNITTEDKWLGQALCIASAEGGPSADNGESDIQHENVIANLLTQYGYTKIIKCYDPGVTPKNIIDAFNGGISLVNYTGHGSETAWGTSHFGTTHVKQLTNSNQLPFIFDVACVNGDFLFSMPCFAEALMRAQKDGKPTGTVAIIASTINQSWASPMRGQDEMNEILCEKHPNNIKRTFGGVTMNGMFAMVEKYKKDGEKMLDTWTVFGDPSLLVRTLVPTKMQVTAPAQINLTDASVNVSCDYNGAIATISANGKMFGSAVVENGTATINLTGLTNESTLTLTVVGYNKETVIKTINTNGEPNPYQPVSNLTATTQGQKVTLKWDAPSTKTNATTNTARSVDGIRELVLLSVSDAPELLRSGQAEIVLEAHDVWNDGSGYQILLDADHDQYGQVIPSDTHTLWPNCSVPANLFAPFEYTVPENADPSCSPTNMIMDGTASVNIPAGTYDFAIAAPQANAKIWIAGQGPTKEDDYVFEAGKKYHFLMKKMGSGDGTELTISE

B1: KB001 mouse Fab VL T24K (Fab, V domains shown)
VH: EVQLKQSGPGLVAPSQSLSITCTVSGFSLSIYSVHWVRQPPGKGLEWLGMIWGGGSSDYNSALKSRLSISKDNSKSQVFLKMNSLQTDDTAMYYCARNGNFYAMDYWGQGTSVTVSS
VL: QIVLTQSPAIMSASLGERVTMTCKASSSVSSSFLHWYQQKPGSSPQLWIYSTSNLASGVPARFSGSGSGTSYSLTISSMEAEDAATYYCHQYHHSPYIYTFGGGTKLEIK
As for B1, the OD450 nm is 0.797 and 0.734; the Ratio OD(Variant)/OD(WT) is 1.04 and 0.954.

B2: KB001 mouse Fab VL S28P (Fab, V domains shown)
VH: EVQLKQSGPGLVAPSQSLSITCTVSGFSLSIYSVHWVRQPPGKGLEWLGMIWGGGSSDYNSALKSRLSISKDNSKSQVFLKMNSLQTDDTAMYYCARNGNFYAMDYWGQGTSVTVSS
VL: QIVLTQSPAIMSASLGERVTMTCTASSPVSSSFLHWYQQKPGSSPQLWIYSTSNLASGVPARFSGSGSGTSYSLTISSMEAEDAATYYCHQYHHSPYIYTFGGGTKLEIK
As for B2, the OD450 nm was 0.808 and 0.726; the Ratio OD(Variant)/OD(WT) is 1.08 and 0.967.

B3: KB001 mouse Fab VL S28G (Fab, V domains shown)
VH: EVQLKQSGPGLVAPSQSLSITCTVSGFSLSIYSVHWVRQPPGKGLEWLGMIWGGGSSDYNSALKSRLSISKDNSKSQVFLKMNSLQTDDTAMYYCARNGNFYAMDYWGQGTSVTVSS
VL: QIVLTQSPAIMSASLGERVTMTCTASSGVSSSFLHWYQQKPGSSPQLWIYSTSNLASGVPARFSGSGSGTSYSLTISSMEAEDAATYYCHQYHHSPYIYTFGGGTKLEIK
Turning to B3, the OD450 nm is 0.818 and the Ratio OD(Variant)/OD(WT) came out at 1.09.

B4: KB001 mouse Fab VL S28K (Fab, V domains shown)
VH: EVQLKQSGPGLVAPSQSLSITCTVSGFSLSIYSVHWVRQPPGKGLEWLGMIWGGGSSDYNSALKSRLSISKDNSKSQVFLKMNSLQTDDTAMYYCARNGNFYAMDYWGQGTSVTVSS
VL: QIVLTQSPAIMSASLGERVTMTCTASSKVSSSFLHWYQQKPGSSPQLWIYSTSNLASGVPARFSGSGSGTSYSLTISSMEAEDAATYYCHQYHHSPYIYTFGGGTKLEIK
Take B4: the OD450 nm was 0.801 and the Ratio OD(Variant)/OD(WT) came to 1.07.

B5: KB001 mouse Fab VL S30F (Fab, V domains shown)
VH: EVQLKQSGPGLVAPSQSLSITCTVSGFSLSIYSVHWVRQPPGKGLEWLGMIWGGGSSDYNSALKSRLSISKDNSKSQVFLKMNSLQTDDTAMYYCARNGNFYAMDYWGQGTSVTVSS
VL: QIVLTQSPAIMSASLGERVTMTCTASSSVFSSFLHWYQQKPGSSPQLWIYSTSNLASGVPARFSGSGSGTSYSLTISSMEAEDAATYYCHQYHHSPYIYTFGGGTKLEIK
As to B5, the OD450 nm was found to be 0.911 and the Ratio OD(Variant)/OD(WT) came to 1.06.

B6: KB001 mouse Fab VL S27K (Fab, V domains shown)
VH: EVQLKQSGPGLVAPSQSLSITCTVSGFSLSIYSVHWVRQPPGKGLEWLGMIWGGGSSDYNSALKSRLSISKDNSKSQVFLKMNSLQTDDTAMYYCARNGNFYAMDYWGQGTSVTVSS
VL: QIVLTQSPAIMSASLGERVTMTCTASKSVSSSFLHWYQQKPGSSPQLWIYSTSNLASGVPARFSGSGSGTSYSLTISSMEAEDAATYYCHQYHHSPYIYTFGGGTKLEIK
B6: the OD450 nm is 0.783 and 0.745 and 0.697; the Ratio OD(Variant)/OD(WT) was 1.04 and 0.993 and 0.929.

B7: KB001 mouse Fab VL S30G (Fab, V domains shown)
VH: EVQLKQSGPGLVAPSQSLSITCTVSGFSLSIYSVHWVRQPPGKGLEWLGMIWGGGSSDYNSALKSRLSISKDNSKSQVFLKMNSLQTDDTAMYYCARNGNFYAMDYWGQGTSVTVSS
VL: QIVLTQSPAIMSASLGERVTMTCTASSSVGSSFLHWYQQKPGSSPQLWIYSTSNLASGVPARFSGSGSGTSYSLTISSMEAEDAATYYCHQYHHSPYIYTFGGGTKLEIK
As for B7, the OD450 nm was 0.916 and 0.858; the Ratio OD(Variant)/OD(WT) was 1.06 and 0.995.

B8: KB001 mouse Fab VL S31F (Fab, V domains shown)
VH: EVQLKQSGPGLVAPSQSLSITCTVSGFSLSIYSVHWVRQPPGKGLEWLGMIWGGGSSDYNSALKSRLSISKDNSKSQVFLKMNSLQTDDTAMYYCARNGNFYAMDYWGQGTSVTVSS
VL: QIVLTQSPAIMSASLGERVTMTCTASSSVSFSFLHWYQQKPGSSPQLWIYSTSNLASGVPARFSGSGSGTSYSLTISSMEAEDAATYYCHQYHHSPYIYTFGGGTKLEIK
Regarding B8, the OD450 nm was 0.854 and 0.688 and 0.693; the Ratio OD(Variant)/OD(WT) was 1.01 and 0.814 and 0.82.

B9: KB001 mouse Fab VL S31E (Fab, V domains shown)
VH: EVQLKQSGPGLVAPSQSLSITCTVSGFSLSIYSVHWVRQPPGKGLEWLGMIWGGGSSDYNSALKSRLSISKDNSKSQVFLKMNSLQTDDTAMYYCARNGNFYAMDYWGQGTSVTVSS
VL: QIVLTQSPAIMSASLGERVTMTCTASSSVSESFLHWYQQKPGSSPQLWIYSTSNLASGVPARFSGSGSGTSYSLTISSMEAEDAATYYCHQYHHSPYIYTFGGGTKLEIK
Take B9: the OD450 nm is 0.903 and 0.798; the Ratio OD(Variant)/OD(WT) was 1.07 and 0.944.

B10: KB001 mouse Fab VL S28V (Fab, V domains shown)
VH: EVQLKQSGPGLVAPSQSLSITCTVSGFSLSIYSVHWVRQPPGKGLEWLGMIWGGGSSDYNSALKSRLSISKDNSKSQVFLKMNSLQTDDTAMYYCARNGNFYAMDYWGQGTSVTVSS
VL: QIVLTQSPAIMSASLGERVTMTCTASSVVSSSFLHWYQQKPGSSPQLWIYSTSNLASGVPARFSGSGSGTSYSLTISSMEAEDAATYYCHQYHHSPYIYTFGGGTKLEIK
For B10, the OD450 nm is 0.786 and 0.731 and 0.717; the Ratio OD(Variant)/OD(WT) was 1.05 and 0.974 and 0.955.

B11: KB001 mouse Fab VL S26N (Fab, V domains shown)
VH: EVQLKQSGPGLVAPSQSLSITCTVSGFSLSIYSVHWVRQPPGKGLEWLGMIWGGGSSDYNSALKSRLSISKDNSKSQVFLKMNSLQTDDTAMYYCARNGNFYAMDYWGQGTSVTVSS
VL: QIVLTQSPAIMSASLGERVTMTCTANSSVSSSFLHWYQQKPGSSPQLWIYSTSNLASGVPARFSGSGSGTSYSLTISSMEAEDAATYYCHQYHHSPYIYTFGGGTKLEIK
For B11, the OD450 nm is 0.823 and 0.749; the Ratio OD(Variant)/OD(WT) is 1.05 and 0.957.

B12: KB001 mouse Fab VL A25T (Fab, V domains shown)
VH: EVQLKQSGPGLVAPSQSLSITCTVSGFSLSIYSVHWVRQPPGKGLEWLGMIWGGGSSDYNSALKSRLSISKDNSKSQVFLKMNSLQTDDTAMYYCARNGNFYAMDYWGQGTSVTVSS
VL: QIVLTQSPAIMSASLGERVTMTCTTSSSVSSSFLHWYQQKPGSSPQLWIYSTSNLASGVPARFSGSGSGTSYSLTISSMEAEDAATYYCHQYHHSPYIYTFGGGTKLEIK
For B12, the OD450 nm was 0.823 and 0.801; the Ratio OD(Variant)/OD(WT) is 1.05 and 1.02.

B13: KB001 mouse Fab VL S31Y (Fab, V domains shown)
VH: EVQLKQSGPGLVAPSQSLSITCTVSGFSLSIYSVHWVRQPPGKGLEWLGMIWGGGSSDYNSALKSRLSISKDNSKSQVFLKMNSLQTDDTAMYYCARNGNFYAMDYWGQGTSVTVSS
VL: QIVLTQSPAIMSASLGERVTMTCTASSSVSYSFLHWYQQKPGSSPQLWIYSTSNLASGVPARFSGSGSGTSYSLTISSMEAEDAATYYCHQYHHSPYIYTFGGGTKLEIK
Take B13: the OD450 nm is 0.849 and the Ratio OD(Variant)/OD(WT) turned out to be 1.

B14: KB001 mouse Fab VL S31P (Fab, V domains shown)
VH: EVQLKQSGPGLVAPSQSLSITCTVSGFSLSIYSVHWVRQPPGKGLEWLGMIWGGGSSDYNSALKSRLSISKDNSKSQVFLKMNSLQTDDTAMYYCARNGNFYAMDYWGQGTSVTVSS
VL: QIVLTQSPAIMSASLGERVTMTCTASSSVSPSFLHWYQQKPGSSPQLWIYSTSNLASGVPARFSGSGSGTSYSLTISSMEAEDAATYYCHQYHHSPYIYTFGGGTKLEIK
Take B14: the OD450 nm is 0.87 and 0.875 and 0.856; the Ratio OD(Variant)/OD(WT) is 1.03 and 1.04 and 1.01.

B15: KB001 mouse Fab VL S28W (Fab, V domains shown)
VH: EVQLKQSGPGLVAPSQSLSITCTVSGFSLSIYSVHWVRQPPGKGLEWLGMIWGGGSSDYNSALKSRLSISKDNSKSQVFLKMNSLQTDDTAMYYCARNGNFYAMDYWGQGTSVTVSS
VL: QIVLTQSPAIMSASLGERVTMTCTASSWVSSSFLHWYQQKPGSSPQLWIYSTSNLASGVPARFSGSGSGTSYSLTISSMEAEDAATYYCHQYHHSPYIYTFGGGTKLEIK
Regarding B15, the OD450 nm was 0.817 and 0.745; the Ratio OD(Variant)/OD(WT) was 1.09 and 0.993.

B16: KB001 mouse Fab VL T24E (Fab, V domains shown)
VH: EVQLKQSGPGLVAPSQSLSITCTVSGFSLSIYSVHWVRQPPGKGLEWLGMIWGGGSSDYNSALKSRLSISKDNSKSQVFLKMNSLQTDDTAMYYCARNGNFYAMDYWGQGTSVTVSS
VL: QIVLTQSPAIMSASLGERVTMTCEASSSVSSSFLHWYQQKPGSSPQLWIYSTSNLASGVPARFSGSGSGTSYSLTISSMEAEDAATYYCHQYHHSPYIYTFGGGTKLEIK
Consider B16, for which the OD450 nm was 0.852 and 0.81; the Ratio OD(Variant)/OD(WT) was 1.11 and 1.05.

B17: KB001 mouse Fab VL T24H (Fab, V domains shown)
VH: EVQLKQSGPGLVAPSQSLSITCTVSGFSLSIYSVHWVRQPPGKGLEWLGMIWGGGSSDYNSALKSRLSISKDNSKSQVFLKMNSLQTDDTAMYYCARNGNFYAMDYWGQGTSVTVSS
VL: QIVLTQSPAIMSASLGERVTMTCHASSSVSSSFLHWYQQKPGSSPQLWIYSTSNLASGVPARFSGSGSGTSYSLTISSMEAEDAATYYCHQYHHSPYIYTFGGGTKLEIK
On to B17, for which the OD450 nm came to 0.795 and the Ratio OD(Variant)/OD(WT) worked out at 1.03.

B18: KB001 mouse Fab VL A25F (Fab, V domains shown)
VH: EVQLKQSGPGLVAPSQSLSITCTVSGFSLSIYSVHWVRQPPGKGLEWLGMIWGGGSSDYNSALKSRLSISKDNSKSQVFLKMNSLQTDDTAMYYCARNGNFYAMDYWGQGTSVTVSS
VL: QIVLTQSPAIMSASLGERVTMTCTFSSSVSSSFLHWYQQKPGSSPQLWIYSTSNLASGVPARFSGSGSGTSYSLTISSMEAEDAATYYCHQYHHSPYIYTFGGGTKLEIK
Regarding B18, the OD450 nm was 0.818 and 0.827 and 0.775; the Ratio OD(Variant)/OD(WT) was 1.04 and 1.06 and 0.99.

B19: KB001 mouse Fab VL S26D (Fab, V domains shown)
VH: EVQLKQSGPGLVAPSQSLSITCTVSGFSLSIYSVHWVRQPPGKGLEWLGMIWGGGSSDYNSALKSRLSISKDNSKSQVFLKMNSLQTDDTAMYYCARNGNFYAMDYWGQGTSVTVSS
VL: QIVLTQSPAIMSASLGERVTMTCTADSSVSSSFLHWYQQKPGSSPQLWIYSTSNLASGVPARFSGSGSGTSYSLTISSMEAEDAATYYCHQYHHSPYIYTFGGGTKLEIK
Take B19: the OD450 nm was 0.821 and the Ratio OD(Variant)/OD(WT) worked out at 1.05.
